B1: Translocated intimin receptor Tir (Escherichia coli O157:H7), Q7DB77 (parent)
chain: MPIGNLGHNPNVNNSIPPAPPLPSQTDGAGGRGQLINSTGPLGSRALFTPVRNSMADSGDNRASDVPGLPVNPMRLAASEITLNDGFEVLHDHGPLDTLNRQIGSSVFRVETQEDGKHIAVGQRNGVETSVVLSDQEYARLQSIDPEGKDKFVFTGGRGGAGHAMVTVASDITEARQRILELLEPKGTGESKGAGESKGVGELRESNSGAENTTETQTSTSTSSLRSDPKLWLALGTVATGLIGLAATGIVQALALTPEPDSPTTTDPDAAASATETATRDQLTKEAFQNPDNQKVNIDELGNAIPSGVLKDDVVANIEEQAKAAGEEAKQQAIENNAQAQKKYDEQQAKRQEELKVSSGAGYGLSGALILGGGIGVAVTAALHRKNQPVEQTTTTTTTTTTTSARTVENKPANNTPAQGNVDTPGSEDTMESRRSSMASTSSTFFDTSSIGTVQNPYADVKTSLHDSQVPTSNSNTSVQNMGNTDSVVYSTIQHPPRDTTDNGARLLGNPSAGIQSTYARLALSGGLRHDMGGLTGGSNSAVNTSNNPPAPGSHRFV
B2: Translocated intimin receptor Tir (Escherichia coli O127:H6 (strain E2348/69 / EPEC)), B7UM99 (parent)
chain: MPIGNLGNNVNGNHLIPPAPPLPSQTDGAARGGTGHLISSTGALGSRSLFSPLRNSMADSVDSRDIPGLPTNPSRLAAATSETCLLGGFEVLHDKGPLDILNTQIGPSAFRVEVQADGTHAAIGEKNGLEVSVTLSPQEWSSLQSIDTEGKNRFVFTGGRGGSGHPMVTVASDIAEARTKILAKLDPDNHGGRQPKDVDTRSVGVGSASGIDDGVVSETHTSTTNSSVRSDPKFWVSVGAIAAGLAGLAATGIAQALALTPEPDDPTTTDPDQAANAAESATKDQLTQEAFKNPENQKVNIDANGNAIPSGELKDDIVEQIAQQAKEAGEVARQQAVESNAQAQQRYEDQHARRQEELQLSSGIGYGLSSALIVAGGIGAGVTTALHRRNQPAEQTTTTTTHTVVQQQTGGNTPAQGGTDATRAEDASLNRRDSQGSVASTHWSDSSSEVVNPYAEVGGARNSLSAHQPEEHIYDEVAADPGYSVIQNFSGSGPVTGRLIGTPGQGIQSTYALLANSGGLRLGMGGLTSGGESAVSSVNAAPTPGPVRFV

Variants of: B1
Details: with ptn6_human PTPN6, P29350
Target sequence in this assay (P29350 whole entry): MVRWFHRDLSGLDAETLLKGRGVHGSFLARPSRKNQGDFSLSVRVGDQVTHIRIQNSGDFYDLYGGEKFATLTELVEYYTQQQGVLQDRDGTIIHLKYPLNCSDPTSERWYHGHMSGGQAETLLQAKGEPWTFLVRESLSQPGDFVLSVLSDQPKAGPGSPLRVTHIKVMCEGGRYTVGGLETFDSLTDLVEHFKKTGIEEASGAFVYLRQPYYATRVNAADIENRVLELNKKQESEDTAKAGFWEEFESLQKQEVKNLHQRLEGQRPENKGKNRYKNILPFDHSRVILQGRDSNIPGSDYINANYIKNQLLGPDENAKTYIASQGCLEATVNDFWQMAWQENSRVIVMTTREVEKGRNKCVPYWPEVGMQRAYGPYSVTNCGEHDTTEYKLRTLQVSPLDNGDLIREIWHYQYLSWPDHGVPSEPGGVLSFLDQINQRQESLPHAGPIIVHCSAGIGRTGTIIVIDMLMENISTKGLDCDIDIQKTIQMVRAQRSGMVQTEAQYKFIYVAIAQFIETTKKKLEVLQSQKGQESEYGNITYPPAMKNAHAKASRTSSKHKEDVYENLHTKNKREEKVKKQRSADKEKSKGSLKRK

Row | Variant | effect of a mutation on the interaction
1 | Y490F;Y519F | decreasing interaction

Variants of: B2
Details: with ptn6_human PTPN6, P29350
Target sequence in this assay (P29350 whole entry): as above

Row | Variant | effect of a mutation on the interaction
2 | Y483F;Y511F | decreasing interaction
3 | Y511F | decreasing interaction
4 | Y483F | decreasing interaction

Variants of: B2
Details: with ptn6_mouse Ptpn6, P29351
ptn6_mouse Ptpn6, P29351, sequence (P29351 whole entry): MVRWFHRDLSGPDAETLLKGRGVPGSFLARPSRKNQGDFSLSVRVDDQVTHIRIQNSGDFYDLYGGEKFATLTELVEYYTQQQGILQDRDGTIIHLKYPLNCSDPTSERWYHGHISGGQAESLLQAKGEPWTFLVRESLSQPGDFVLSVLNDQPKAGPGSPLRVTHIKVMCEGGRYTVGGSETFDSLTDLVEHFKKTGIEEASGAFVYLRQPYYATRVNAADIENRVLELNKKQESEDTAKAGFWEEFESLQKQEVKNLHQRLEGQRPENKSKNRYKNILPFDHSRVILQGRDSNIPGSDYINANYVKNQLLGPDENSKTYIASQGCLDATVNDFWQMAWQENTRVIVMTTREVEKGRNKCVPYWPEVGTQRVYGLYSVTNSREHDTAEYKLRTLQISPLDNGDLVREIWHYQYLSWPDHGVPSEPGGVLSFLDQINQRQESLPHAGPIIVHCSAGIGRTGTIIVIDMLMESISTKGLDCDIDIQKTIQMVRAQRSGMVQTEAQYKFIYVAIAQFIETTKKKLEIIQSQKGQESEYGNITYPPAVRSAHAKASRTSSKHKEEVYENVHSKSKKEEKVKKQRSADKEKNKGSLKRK

Row | Variant | effect of a mutation on the interaction
5 | Y483F;Y511F | decreasing interaction
